Measurements as given in FireProtDB (doi:10.1046/j.1432-1327.1999.00918.x).

Details: Homo sapiens; pH 2.7; Thermal; DSC; glycine 0.05 M; reversible: yes; whole UniProt chain shown

B1: Lysozyme C wild type, P61626 (protein)
chain: MKALIVLGLVLLSVTVQGKVFERCELARTLKRLGMDGYRGISLANWMCLAKWESGYNTRATNYNAGDRSTDYGIFQINSRYWCNDGKTPGAVNACHLSCSALLQDNIADAVACAKRVVRDPQGIRAWVAWRNRCQNRDVRQYVQGCGV
- Tm: 64.9 °C
- heat capacity change of unfolding: 1.55 kcal/mol/K
- unfolding enthalpy (calorimetric): 114 kcal/mol
